Data taken from patent publication US12048734B2, “Bioactive peptides and methods of use thereof” (OP-T LLC, priority 2020, dated 2024).

Tested on: CD4loCD40+ T cells (Th40 cells)
Experiment: Cytokine production of CD40- or CD3-stimulated Th40 cells with galectin-9
Type: cell-based, NOD mice
Conditions: 3 days; indicated concentrations of galectin-9
Protocol: CD4loCD40+ T cells (Th40 cells) were sorted from 7-20 weeks old female NOD spleens. Cells were either isotype treated, CD40- or CD3-stimulated in the absence/presence of indicated concentrations of galectin-9 (gal-9; mg/ml) for 3 days then cytokines were measured. Bar graphs depict means with SEM. Asterisks denote significant differences determined by one-way Anova; *-P between 0.01 and 0.05; **-P, 0.01; ***-P, 0.001. Measurements were done on four individual mice of different ages.

B1: galectin-9: galectin-9 protein added to Th40 cell cultures (protein, UniProt O00182 1-355, looked up)
Galectin-9: MAFSGSQAPYLSPAVPFSGTIQGGLQDGLQITVNGTVLSSSGTRFAVNFQTGFSGNDIAFHFNPRFEDGGYVVCNTRQNGSWGPEERKTHMPFQKGMPFDLCFLVQSSDFKVMVNGILFVQYFHRVPFHRVDTISVNGSVQLSYISFQNPRTVPVQPAFSTVPFSQPVCFPPRPRGRRQKPPGVWPANPAPITQTVIHTVQSAPGQMFSTPAIPPMMYPHPAYPMPFITTILGGLYPSKSILLSGTVLPSAQRFHINLCSGNHIAFHLNPRFDENAVVRNTQIDNSWGSEERSLPRKMPFVRGQSFSVWILCEAHCLKVAVDGQHLFEYYHRLRNLPTINRLEVGGDIQLTHVQT
CD40 and CD3 induced cytokine production level: alters the production level
